Measurements: the supplement of paper PMC5998384

Columns and labels:
[1] = test system: HeLa Kyoto; assay: solubility in G1/S (NP-40 vs SDS abundance) (log2 ratio); higher = more soluble; conditions: cell cycle stage: G1/S
[2] = test system: HeLa Kyoto; assay: melting temperature (median over replicates), in situ; higher = more thermally stable
[3] = test system: HeLa Kyoto; assay: solubility change mitosis vs G1/S (difference of NP-40 vs SDS log2 ratios) (log2 ratio difference); higher = more soluble in mitosis
[4] = test system: HeLa Kyoto; assay: thermal stability score vs G1/S (z-score of summed log2 fold changes over temperatures); higher = more thermally stable than in G1/S
[5] = cell cycle stage: early G1 (4.5 h after nocodazole release)
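Wherever melting temperature (median over replicates), in situ is given: HeLa Kyoto cells synchronized by double thymidine or nocodazole block, proteins quantified by TMT10plex mass spectrometry, three independent biological replicates.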
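Wherever solubility change mitosis vs G1/S (difference of NP-40 vs SDS log2 ratios) is given: synchronized HeLa Kyoto cells (double thymidine block for G1/S, nocodazole release for mitosis), protein amounts in NP-40 versus SDS lysates quantified by mass spectrometry, three biological replicates.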
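Wherever solubility in G1/S (NP-40 vs SDS abundance) is given: HeLa Kyoto cells arrested at G1/S by double thymidine block, proteins quantified by TMT10plex mass spectrometry in mild NP-40 versus SDS extracts, three biological replicates.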
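Wherever thermal stability score vs G1/S (z-score of summed log2 fold changes over temperatures) is given: synchronized HeLa Kyoto cells, proteins quantified by TMT10plex mass spectrometry, three biological replicates, mitosis taken 0.5 h after nocodazole release, G1/S directly after double thymidine block.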

Sequence	solubility in G1/S (log2) [1]	melting temperature ([2]; cell cycle stage: G1/S) [°C]	melting temperature ([2]; cell cycle stage: mitosis) [°C]	solubility change mitosis (log2) [3]	thermal stability score [4, 5]	thermal stability score ([4]; cell cycle stage: mitosis)
MAGRLLGKALAAVSLSLALASVTIRSSRCRGIQAFRNSFSSSWFHLNTNVMSGSNGSKENSHNKARTSPYPGSKVERSQVPNEKVGWLVEWQDYKPVEYTAVSVLAGPRWADPQISESNFSPKFNEKDGHVERKSKNGLYEIENGRPRNPAGRTGLVGRGLLGRWGPNHAADPIITRWKRDSSGNKIMHPVSGKHILQFVAIKRKDCGEWAIPGGMVDPGEKISATLKREFGEEALNSLQKTSAEKREIEEKLHKLFSQDHLVIYKGYVDDPRNTDNAWMETEAVNYHDETGEIMDNLMLEAGDDAGKVKWVDINDKLKLYASHSQFIKLVAEKRDAHWSEDSEADCHAL [NUDT9]	0.41	50.3	50.5	0.00145	-0.398	-0.161
MAGSRQRGLRARVRPLFCALLLSLGRFVRGDGVGGDPAVALPHRRFEYKYSFKGPHLVQSDGTVPFWAHAGNAIPSSDQIRVAPSLKSQRGSVWTKTKAAFENWEVEVTFRVTGRGRIGADGLAIWYAENQGLEGPVFGSADLWNGVGIFFDSFDNDGKKNNPAIVIIGNNGQIHYDHQNDGASQALASCQRDFRNKPYPVRAKITYYQNTLTVMINNGFTPDKNDYEFCAKVENMIIPAQGHFGISAATGGLADDHDVLSFLTFQLTEPGKEPPTPDKEISEKEKEKYQEEFEHFQQELDKKKEEFQKGHPDLQGQPAEEIFESVGDRELRQVFEGQNRIHLEIKQLNRQLDMILDEQRRYVSSLTEEISKRGAGMPGQHGQITQQELDTVVKTQHEILRQVNEMKNSMSETVRLVSGMQHPGSAGGVYETTQHFIDIKEHLHIVKRDIDNLVQRNMPSNEKPKCPELPPFPSCLSTVHFIIFVVVQTVLFIGYIMYRSQQEAAAKKFF [LMAN1]	0.173	53.3	53.5	-0.0873	3.5	5.07
MAGTGLVAGEVVVDALPYFDQGYEAPGVREAAAALVEEETRRYRPTKNYLSYLTAPDYSAFETDIMRNEFERLAARQPIELLSMKRYELPAPSSGQKNDITAWQECVNNSMAQLEHQAVRIENLELMSQHGCNAWKVYNENLVHMIEHAQKELQKLRKHIQDLNWQRKNMQLTAGSKLREMESNWVSLVSKNYEIERTIVQLENEIYQIKQQHGEANKENIRQDF [BCAS2]	-0.134	50.4	50.3	0.721	-0.858	-0.925
MAGTSAPGSKRRSEPPAPRPGPPPGTGHPPSKRARGFSAAAAPDPDDPFGAHGDFTADDLEELDTLASQALSQCPAAARDVSSDHKVHRLLDGMSKNPSGKNRETVPIKDNFELEVLQAQYKELKEKMKVMEEEVLIKNGEIKILRDSLHQTESVLEEQRRSHFLLEQEKTQALSDKEKEFSKKLQSLQSELQFKDAEMNELRTKLQTSERANKLAAPSVSHVSPRKNPSVVIKPEACSPQFGKTSFPTKESFSANMSLPHPCQTESGYKPLVGREDSKPHSLRGDSIKQEEAQKSFVDSWRQRSNTQGSILINLLLKQPLIPGSSLSLCHLLSSSSESPAGTPLQPPGFGSTLAGMSGLRTTGSYDGSFSLSALREAQNLAFTGLNLVARNECSRDGDPAEGGRRAFPLCQLPGAVHFLPLVQFFIGLHCQALQDLAAAKRSGAPGDSPTHSSCVSSGVETNPEDSVCILEGFSVTALSILQHLVCHSGAVVSLLLSGVGADSAAGEGNRSLVHRLSDGDMTSALRGVADDQGQHPLLKMLLHLLAFSSAATGHLQASVLTQCLKVLVKLAENTSCDFLPRFQCVFQVLPKCLSPETPLPSVLLAVELLSLLADHDQLAPQLCSHSEGCLLLLLYMYITSRPDRVALETQWLQLEQEVVWLLAKLGVQSPLPPVTGSNCQCNVEVVRALTVMLHRQWLTVRRAGGPPRTDQQRRTVRCLRDTVLLLHGLSQKDKLFMMHCVEVLHQFDQVMPGVSMLIRGLPDVTDCEEAALDDLCAAETDVEDPEVECG [ATRIP]	0.243	50.9	51.5	0.065	0.257	0.455
MAGVACLGKAADADEWCDSGLGSLGPDAAAPGGPGLGAELGPGLSWAPLVFGYVTEDGDTALHLAVIHQHEPFLDFLLGFSAGTEYMDLQNDLGQTALHLAAILGETSTVEKLYAAGAGLCVAERRGHTALHLACRVGAHACARALLQPRPRRPREAPDTYLAQGPDRTPDTNHTPVALYPDSDLEKEEEESEEDWKLQLEAENYEGHTPLHVAVIHKDVEMVRLLRDAGADLDKPEPTCGRSPLHLAVEAQAADVLELLLRAGANPAARMYGGRTPLGSAMLRPNPILARLLRAHGAPEPEGEDEKSGPCSSSSDSDSGDEGDEYDDIVVHSSRSQTRLPPTPASKPLPDDPRPV [NFKBIB]	0.533	49.3	50	-0.224	0.217	0.0879
MAGVEEVAASGSHLNGDLDPDDREEGAASTAEEAAKKKRRKKKKSKGPSAAGEQEPDKESGASVDEVARQLERSALEDKERDEDDEDGDGDGDGATGKKKKKKKKKRGPKVQTDPPSVPICDLYPNGVFPKGQECEYPPTQDGRTAAWRTTSEEKKALDQASEEIWNDFREAAEAHRQVRKYVMSWIKPGMTMIEICEKLEDCSRKLIKENGLNAGLAFPTGCSLNNCAAHYTPNAGDTTVLQYDDICKIDFGTHISGRIIDCAFTVTFNPKYDTLLKAVKDATNTGIKCAGIDVRLCDVGEAIQEVMESYEVEIDGKTYQVKPIRNLNGHSIGQYRIHAGKTVPIVKGGEATRMEEGEVYAIETFGSTGKGVVHDDMECSHYMKNFDVGHVPIRLPRTKHLLNVINENFGTLAFCRRWLDRLGESKYLMALKNLCDLGIVDPYPPLCDIKGSYTAQFEHTILLRPTCKEVVSRGDDY [METAP2]	-0.0489	58.1	57	-0.0109	-2.19	-2.92
MAHSKTRTNDGKITYPPGVKEISDKISKEEMVRRLKMVVKTFMDMDQDSEEEKELYLNLALHLASDFFLKHPDKDVRLLVACCLADIFRIYAPEAPYTSPDKLKDIFMFITRQLKGLEDTKSPQFNRYFYLLENIAWVKSYNICFELEDSNEIFTQLYRTLFSVINNGHNQKVHMHMVDLMSSIICEGDTVSQELLDTVLVNLVPAHKNLNKQAYDLAKALLKRTAQAIEPYITNFFNQVLMLGKTSISDLSEHVFDLILELYNIDSHLLLSVLPQLEFKLKSNDNEERLQVVKLLAKMFGAKDSELASQNKPLWQCYLGRFNDIHVPIRLECVKFASHCLMNHPDLAKDLTEYLKVRSHDPEEAIRHDVIVSIVTAAKKDILLVNDHLLNFVRERTLDKRWRVRKEAMMGLAQIYKKYALQSAAGKDAAKQIAWIKDKLLHIYYQNSIDDRLLVERIFAQYMVPHNLETTERMKCLYYLYATLDLNAVKALNEMWKCQNLLRHQVKDLLDLIKQPKTDASVKAIFSKVMVITRNLPDPGKAQDFMKKFTQVLEDDEKIRKQLEVLVSPTCSCKQAEGCVREITKKLGNPKQPTNPFLEMIKFLLERIAPVHIDTESISALIKQVNKSIDGTADDEDEGVPTDQAIRAGLELLKVLSFTHPISFHSAETFESLLACLKMDDEKVAEAALQIFKNTGSKIEEDFPHIRSALLPVLHHKSKKGPPRQAKYAIHCIHAIFSSKETQFAQIFEPLHKSLDPSNLEHLITPLVTIGHIALLAPDQFAAPLKSLVATFIVKDLLMNDRLPGKKTTKLWVPDEEVSPETMVKIQAIKMMVRWLLGMKNNHSKSGTSTLRLLTTILHSDGDLTEQGKISKPDMSRLRLAAGSAIVKLAQEPCYHEIITLEQYQLCALAINDECYQVRQVFAQKLHKGLSRLRLPLEYMAICALCAKDPVKERRAHARQCLVKNINVRREYLKQHAAVSEKLLSLLPEYVVPYTIHLLAHDPDYVKVQDIEQLKDVKECLWFVLEILMAKNENNSHAFIRKMVENIKQTKDAQGPDDAKMNEKLYTVCDVAMNIIMSKSTTYSLESPKDPVLPARFFTQPDKNFSNTKNYLPPEMKSFFTPGKPKTTNVLGAVNKPLSSAGKQSQTKSSRMETVSNASSSSNPSSPGRIKGRLDSSEMDHSENEDYTMSSPLPGKKSDKRDDSDLVRSELEKPRGRKKTPVTEQEEKLGMDDLTKLVQEQKPKGSQRSRKRGHTASESDEQQWPEEKRLKEDILENEDEQNSPPKKGKRGRPPKPLGGGTPKEEPTMKTSKKGSKKKSGPPAPEEEEEEERQSGNTEQKSKSKQHRVSRRAQQRAESPESSAIESTQSTPQKGRGRPSKTPSPSQPKKNVRVGRSKQAATKENDSSEEVDVFQGSSPVDDIPQEETEEEEVSTVNVRRRSAKRERR [PDS5B]	-0.302	49.2	49.4	0.216	-0.564	0.534
MAHVGSRKRSRSRSRSRGRGSEKRKKKSRKDTSRNCSASTSQGRKASTAPGAEASPSPCITERSKQKARRRTRSSSSSSSSSSSSSSSSSSSSSSSSSDGRKKRGKYKDKRRKKKKKRKKLKKKGKEKAEAQQVEALPGPSLDQWHRSAGEEEDGPVLTDEQKSRIQAMKPMTKEEWDARQSIIRKVVDPETGRTRLIKGDGEVLEEIVTKERHREINKQATRGDCLAFQMRAGLLP [ARL6IP4]	-0.997	52.6	52	0.853	-1.78	-3.1
MAIKSIASRLRGSRRFLSGFVAGAVVGAAGAGLAALQFFRSQGAEGALTGKQPDGSAEKAVLEQFGFPLTGTEARCYTNHALSYDQAKRVPRWVLEHISKSKIMGDADRKHCKFKPDPNIPPTFSAFNEDYVGSGWSRGHMAPAGNNKFSSKAMAETFYLSNIVPQDFDNNSGYWNRIEMYCRELTERFEDVWVVSGPLTLPQTRGDGKKIVSYQVIGEDNVAVPSHLYKVILARRSSVSTEPLALGAFVVPNEAIGFQPQLTEFQVSLQDLEKLSGLVFFPHLDRTSDIRNICSVDTCKLLDFQEFTLYLSTRKIEGARSVLRLEKIMENLKNAEIEPDDYFMSRYEKKLEELKAKEQSGTQIRKPS [EXOG]	0.21	52.8	51.3	-0.0598	2.74	-1.52
MAIQFRSLFPLALPGMLALLGWWWFFSRKKGHVSSHDEQQVEAGAVQLRADPAIKEPLPVEDVCPKVVSTPPSVTEPPEKELSTVSKLPAEPPALLQTHPPCRRSESSGILPNTTDMRLRPGTRRDDSTKLELALTGGEAKSIPLECPLSSPKGVLFSSKSAEVCKQDSPFSRVPRKVQPGYPVVPAEKRSSGERARETGGAEGTGDAVLGEKVLEEALLSREHVLELENSKGPSLASLEGEEDKGKSSSSQVVGPVQEEEYVAEKLPSRFIESAHTELAKDDAAPAPPVADAKAQDRGVEGELGNEESLDRNEEGLDRNEEGLDRNEESLDRNEEGLDRNEEIKRAAFQIISQVISEATEQVLATTVGKVAGRVCQASQLQGQKEESCVPVHQKTVLGPDTAEPATAEAAVAPPDAGLPLPGLPAEGSPPPKTYVSCLKSLLSSPTKDSKPNISAHHISLASCLALTTPSEELPDRAGILVEDATCVTCMSDSSQSVPLVASPGHCSDSFSTSGLEDSCTETSSSPRDKAITPPLPESTVPFSNGVLKGELSDLGAEDGWTMDAEADHSGGSDRNSMDSVDSCCSLKKTESFQNAQAGSNPKKVDLIIWEIEVPKHLVGRLIGKQGRYVSFLKQTSGAKIYISTLPYTQSVQICHIEGSQHHVDKALNLIGKKFKELNLTNIYAPPLPSLALPSLPMTSWLMLPDGITVEVIVVNQVNAGHLFVQQHTHPTFHALRSLDQQMYLCYSQPGIPTLPTPVEITVICAAPGADGAWWRAQVVASYEETNEVEIRYVDYGGYKRVKVDVLRQIRSDFVTLPFQGAEVLLDSVMPLSDDDQFSPEADAAMSEMTGNTALLAQVTSYSPTGLPLIQLWSVVGDEVVLINRSLVERGLAQWVDSYYTSL [AKAP1]	-0.0583	50.3	50.6	-0.0592	0.769	1.64
